The values below come from US20210238260.

To fix the notation:
B1: FIXa R318Y/R338E/Y345A/R403E/E410N (protein)
chain 1: YNSGKLEEFVQGNLERECMEEKCSFEEAREVFENTERTTEFWKQYVDGDQCESNPCLNGGSCKDDINSYECWCPFGFEGKNCELDVTCNIKNGRCEQFCKNSADNKVVCSCTEGYRLAENQKSCEPAVPFPCGRVSVSQTSKLTR
chain 2: VVGGEDAKPGQFPWQVVLNGKVDAFCGGSIVNEKWIVTAAHCVETGVKITVVAGEHNIEETEHTEQKRNVIRIIPHHNYNAAINKYNHDIALLELDEPLVLNSYVTPICIADKEYTNIFLKFGSGYVSGWGRVFHKGYSALVLQYLRVPLVDRATCLESTKFTIANNMFCAGFHEGGRDSCQGDSGGPHVTEVEGTSFLTGIISWGEECAMKGKYGIYTKVSEYVNWIKNKTKLT
B2: FIXa Y155F/R318Y/T343R/R403E/E410N (protein)
chain 1: YNSGKLEEFVQGNLERECMEEKCSFEEAREVFENTERTTEFWKQYVDGDQCESNPCLNGGSCKDDINSYECWCPFGFEGKNCELDVTCNIKNGRCEQFCKNSADNKVVCSCTEGYRLAENQKSCEPAVPFPCGRVSVSQTSKLTR
chain 2: VVGGEDAKPGQFPWQVVLNGKVDAFCGGSIVNEKWIVTAAHCVETGVKITVVAGEHNIEETEHTEQKRNVIRIIPHHNYNAAINKYNHDIALLELDEPLVLNSYVTPICIADKEYTNIFLKFGSGYVSGWGRVFHKGYSALVLQYLRVPLVDRATCLRSTKFRIYNNMFCAGFHEGGRDSCQGDSGGPHVTEVEGTSFLTGIISWGEECAMKGKYGIYTKVSEYVNWIKNKTKLT
B3: FIXa Y155F/K247N/N249S/R338E/R403E/E410N (protein)
chain 1: YNSGKLEEFVQGNLERECMEEKCSFEEAREVFENTERTTEFWKQYVDGDQCESNPCLNGGSCKDDINSYECWCPFGFEGKNCELDVTCNIKNGRCEQFCKNSADNKVVCSCTEGYRLAENQKSCEPAVPFPCGRVSVSQTSKLTR
chain 2: VVGGEDAKPGQFPWQVVLNGKVDAFCGGSIVNEKWIVTAAHCVETGVKITVVAGEHNIEETEHTEQNRSVIRIIPHHNYNAAINKYNHDIALLELDEPLVLNSYVTPICIADKEYTNIFLKFGSGYVSGWGRVFHKGRSALVLQYLRVPLVDRATCLESTKFTIYNNMFCAGFHEGGRDSCQGDSGGPHVTEVEGTSFLTGIISWGEECAMKGKYGIYTKVSEYVNWIKNKTKLT
B4: FIXa R338E/T343R/R403E/E410N (protein)
chain 1: YNSGKLEEFVQGNLERECMEEKCSFEEAREVFENTERTTEFWKQYVDGDQCESNPCLNGGSCKDDINSYECWCPFGFEGKNCELDVTCNIKNGRCEQFCKNSADNKVVCSCTEGYRLAENQKSCEPAVPFPCGRVSVSQTSKLTR
chain 2: VVGGEDAKPGQFPWQVVLNGKVDAFCGGSIVNEKWIVTAAHCVETGVKITVVAGEHNIEETEHTEQKRNVIRIIPHHNYNAAINKYNHDIALLELDEPLVLNSYVTPICIADKEYTNIFLKFGSGYVSGWGRVFHKGRSALVLQYLRVPLVDRATCLESTKFRIYNNMFCAGFHEGGRDSCQGDSGGPHVTEVEGTSFLTGIISWGEECAMKGKYGIYTKVSEYVNWIKNKTKLT
B5: FIXa R318Y/R338E/T343R/E410N (protein)
chain 1: YNSGKLEEFVQGNLERECMEEKCSFEEAREVFENTERTTEFWKQYVDGDQCESNPCLNGGSCKDDINSYECWCPFGFEGKNCELDVTCNIKNGRCEQFCKNSADNKVVCSCTEGYRLAENQKSCEPAVPFPCGRVSVSQTSKLTR
chain 2: VVGGEDAKPGQFPWQVVLNGKVDAFCGGSIVNEKWIVTAAHCVETGVKITVVAGEHNIEETEHTEQKRNVIRIIPHHNYNAAINKYNHDIALLELDEPLVLNSYVTPICIADKEYTNIFLKFGSGYVSGWGRVFHKGYSALVLQYLRVPLVDRATCLESTKFRIYNNMFCAGFHEGGRDSCQGDSGGPHVTEVEGTSFLTGIISWGEECAMKGKYGIYTKVSRYVNWIKNKTKLT
B6: FIXa K247N/N249S/R318Y/R403E/E410N (protein)
chain 1: YNSGKLEEFVQGNLERECMEEKCSFEEAREVFENTERTTEFWKQYVDGDQCESNPCLNGGSCKDDINSYECWCPFGFEGKNCELDVTCNIKNGRCEQFCKNSADNKVVCSCTEGYRLAENQKSCEPAVPFPCGRVSVSQTSKLTR
chain 2: VVGGEDAKPGQFPWQVVLNGKVDAFCGGSIVNEKWIVTAAHCVETGVKITVVAGEHNIEETEHTEQNRSVIRIIPHHNYNAAINKYNHDIALLELDEPLVLNSYVTPICIADKEYTNIFLKFGSGYVSGWGRVFHKGYSALVLQYLRVPLVDRATCLRSTKFTIYNNMFCAGFHEGGRDSCQGDSGGPHVTEVEGTSFLTGIISWGEECAMKGKYGIYTKVSEYVNWIKNKTKLT
B7: FIXa K247N/N249S/R318Y/R338E/R403E (protein)
chain 1: YNSGKLEEFVQGNLERECMEEKCSFEEAREVFENTERTTEFWKQYVDGDQCESNPCLNGGSCKDDINSYECWCPFGFEGKNCELDVTCNIKNGRCEQFCKNSADNKVVCSCTEGYRLAENQKSCEPAVPFPCGRVSVSQTSKLTR
chain 2: VVGGEDAKPGQFPWQVVLNGKVDAFCGGSIVNEKWIVTAAHCVETGVKITVVAGEHNIEETEHTEQNRSVIRIIPHHNYNAAINKYNHDIALLELDEPLVLNSYVTPICIADKEYTNIFLKFGSGYVSGWGRVFHKGYSALVLQYLRVPLVDRATCLESTKFTIYNNMFCAGFHEGGRDSCQGDSGGPHVTEVEGTSFLTGIISWGEECAMKGKYGIYTKVSEYVNWIKEKTKLT
B8: FIXa Y155F/R318Y/R338E/T343R/R403E (protein)
chain 1: YNSGKLEEFVQGNLERECMEEKCSFEEAREVFENTERTTEFWKQYVDGDQCESNPCLNGGSCKDDINSYECWCPFGFEGKNCELDVTCNIKNGRCEQFCKNSADNKVVCSCTEGYRLAENQKSCEPAVPFPCGRVSVSQTSKLTR
chain 2: VVGGEDAKPGQFPWQVVLNGKVDAFCGGSIVNEKWIVTAAHCVETGVKITVVAGEHNIEETEHTEQKRNVIRIIPHHNYNAAINKYNHDIALLELDEPLVLNSYVTPICIADKEYTNIFLKFGSGYVSGWGRVFHKGYSALVLQYLRVPLVDRATCLESTKFRIYNNMFCAGFHEGGRDSCQGDSGGPHVTEVEGTSFLTGIISWGEECAMKGKYGIYTKVSEYVNWIKEKTKLT
B9: FIXa-R338E/T343R/E410N (protein)
chain 1: YNSGKLEEFVQGNLERECMEEKCSFEEAREVFENTERTTEFWKQYVDGDQCESNPCLNGGSCKDDINSYECWCPFGFEGKNCELDVTCNIKNGRCEQFCKNSADNKVVCSCTEGYRLAENQKSCEPAVPFPCGRVSVSQTSKLTR
chain 2: VVGGEDAKPGQFPWQVVLNGKVDAFCGGSIVNEKWIVTAAHCVETGVKITVVAGEHNIEETEHTEQKRNVIRIIPHHNYNAAINKYNHDIALLELDEPLVLNSYVTPICIADKEYTNIFLKFGSGYVSGWGRVFHKGRSALVLQYLRVPLVDRATCLESTKFRIYNNMFCAGFHEGGRDSCQGDSGGPHVTEVEGTSFLTGIISWGEECAMKGKYGIYTKVSRYVNWIKNKTKLT
B10: FIXa K247N/N249S/R338E/R403E/E410N (protein)
chain 1: YNSGKLEEFVQGNLERECMEEKCSFEEAREVFENTERTTEFWKQYVDGDQCESNPCLNGGSCKDDINSYECWCPFGFEGKNCELDVTCNIKNGRCEQFCKNSADNKVVCSCTEGYRLAENQKSCEPAVPFPCGRVSVSQTSKLTR
chain 2: VVGGEDAKPGQFPWQVVLNGKVDAFCGGSIVNEKWIVTAAHCVETGVKITVVAGEHNIEETEHTEQNRSVIRIIPHHNYNAAINKYNHDIALLELDEPLVLNSYVTPICIADKEYTNIFLKFGSGYVSGWGRVFHKGRSALVLQYLRVPLVDRATCLESTKFTIYNNMFCAGFHEGGRDSCQGDSGGPHVTEVEGTSFLTGIISWGEECAMKGKYGIYTKVSEYVNWIKNKTKLT
B11: FIXa Y155F/K247N/N249S/R318Y/R403E/E410N (protein)
chain 1: YNSGKLEEFVQGNLERECMEEKCSFEEAREVFENTERTTEFWKQYVDGDQCESNPCLNGGSCKDDINSYECWCPFGFEGKNCELDVTCNIKNGRCEQFCKNSADNKVVCSCTEGYRLAENQKSCEPAVPFPCGRVSVSQTSKLTR
chain 2: VVGGEDAKPGQFPWQVVLNGKVDAFCGGSIVNEKWIVTAAHCVETGVKITVVAGEHNIEETEHTEQNRSVIRIIPHHNYNAAINKYNHDIALLELDEPLVLNSYVTPICIADKEYTNIFLKFGSGYVSGWGRVFHKGYSALVLQYLRVPLVDRATCLRSTKFTIYNNMFCAGFHEGGRDSCQGDSGGPHVTEVEGTSFLTGIISWGEECAMKGKYGIYTKVSEYVNWIKNKTKLT
B12: FIXa Y155F/K247N/N249S/R318Y/R338E/R403E (protein)
chain 1: YNSGKLEEFVQGNLERECMEEKCSFEEAREVFENTERTTEFWKQYVDGDQCESNPCLNGGSCKDDINSYECWCPFGFEGKNCELDVTCNIKNGRCEQFCKNSADNKVVCSCTEGYRLAENQKSCEPAVPFPCGRVSVSQTSKLTR
chain 2: VVGGEDAKPGQFPWQVVLNGKVDAFCGGSIVNEKWIVTAAHCVETGVKITVVAGEHNIEETEHTEQNRSVIRIIPHHNYNAAINKYNHDIALLELDEPLVLNSYVTPICIADKEYTNIFLKFGSGYVSGWGRVFHKGYSALVLQYLRVPLVDRATCLESTKFTIYNNMFCAGFHEGGRDSCQGDSGGPHVTEVEGTSFLTGIISWGEECAMKGKYGIYTKVSEYVNWIKEKTKLT
B13: FIXa Y155F/R318Y/R338E/T343R/E410N (protein)
chain 1: YNSGKLEEFVQGNLERECMEEKCSFEEAREVFENTERTTEFWKQYVDGDQCESNPCLNGGSCKDDINSYECWCPFGFEGKNCELDVTCNIKNGRCEQFCKNSADNKVVCSCTEGYRLAENQKSCEPAVPFPCGRVSVSQTSKLTR
chain 2: VVGGEDAKPGQFPWQVVLNGKVDAFCGGSIVNEKWIVTAAHCVETGVKITVVAGEHNIEETEHTEQKRNVIRIIPHHNYNAAINKYNHDIALLELDEPLVLNSYVTPICIADKEYTNIFLKFGSGYVSGWGRVFHKGYSALVLQYLRVPLVDRATCLESTKFRIYNNMFCAGFHEGGRDSCQGDSGGPHVTEVEGTSFLTGIISWGEECAMKGKYGIYTKVSRYVNWIKNKTKLT
B14: FIXa R318Y/R338E/T343R/R403E (protein)
chain 1: YNSGKLEEFVQGNLERECMEEKCSFEEAREVFENTERTTEFWKQYVDGDQCESNPCLNGGSCKDDINSYECWCPFGFEGKNCELDVTCNIKNGRCEQFCKNSADNKVVCSCTEGYRLAENQKSCEPAVPFPCGRVSVSQTSKLTR
chain 2: VVGGEDAKPGQFPWQVVLNGKVDAFCGGSIVNEKWIVTAAHCVETGVKITVVAGEHNIEETEHTEQKRNVIRIIPHHNYNAAINKYNHDIALLELDEPLVLNSYVTPICIADKEYTNIFLKFGSGYVSGWGRVFHKGYSALVLQYLRVPLVDRATCLESTKFRIYNNMFCAGFHEGGRDSCQGDSGGPHVTEVEGTSFLTGIISWGEECAMKGKYGIYTKVSEYVNWIKEKTKLT

This data set deals with Factor X, P00742.
Sequence of Factor X, P00742 (P00742 whole entry, looked up): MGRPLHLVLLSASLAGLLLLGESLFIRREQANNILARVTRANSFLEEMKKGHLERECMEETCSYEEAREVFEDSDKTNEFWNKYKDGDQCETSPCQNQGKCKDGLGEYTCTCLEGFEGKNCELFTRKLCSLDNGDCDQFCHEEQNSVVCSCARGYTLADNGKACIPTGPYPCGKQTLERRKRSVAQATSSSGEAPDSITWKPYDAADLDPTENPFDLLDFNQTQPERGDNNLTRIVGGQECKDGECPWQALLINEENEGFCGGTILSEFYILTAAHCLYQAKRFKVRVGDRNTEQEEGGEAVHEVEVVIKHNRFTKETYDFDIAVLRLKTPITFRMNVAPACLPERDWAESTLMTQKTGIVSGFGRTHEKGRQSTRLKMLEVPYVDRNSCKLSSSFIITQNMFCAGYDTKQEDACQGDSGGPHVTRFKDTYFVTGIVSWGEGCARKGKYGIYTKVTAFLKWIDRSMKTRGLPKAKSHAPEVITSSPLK
Take B1: the “% of WT kcat/KM” value worked out at 180%; the KM (FX activation by FIXa in Xase complex with FVIIIa, PC/PS vesicles, Ca2+) was determined as 18.8 nM; the kcat/KM is 8.3e+07 M⁻¹ s⁻¹.

As for B2, the KM (FX activation by FIXa in Xase complex with FVIIIa, PC/PS vesicles, Ca2+) amounted to 34 nM.

Regarding B3, the KM (FX activation by FIXa in Xase complex with FVIIIa, PC/PS vesicles, Ca2+) turned out to be 48.7 nM.

Regarding B4, the KM (FX activation by FIXa in Xase complex with FVIIIa, PC/PS vesicles, Ca2+) was 34.7 nM.

Take B5: the KM (FX activation by FIXa in Xase complex with FVIIIa, PC/PS vesicles, Ca2+) was found to be 16.4 nM.

As to B6, the KM (FX activation by FIXa in Xase complex with FVIIIa, PC/PS vesicles, Ca2+) was found to be 111 nM.

For B7, the KM (FX activation by FIXa in Xase complex with FVIIIa, PC/PS vesicles, Ca2+) is 53.6 nM.

Turning to B8, the KM (FX activation by FIXa in Xase complex with FVIIIa, PC/PS vesicles, Ca2+) is 34 nM.

Consider B9, for which the KM came out at 35.5 nM.

For B10, the KM (FX activation by FIXa in Xase complex with FVIIIa, PC/PS vesicles, Ca2+) was 25 nM.

Consider B11, for which the KM (FX activation by FIXa in Xase complex with FVIIIa, PC/PS vesicles, Ca2+) came out at 125 nM.

For B12, the KM (FX activation by FIXa in Xase complex with FVIIIa, PC/PS vesicles, Ca2+) turned out to be 67.3 nM.

For the protein B13, the KM (FX activation by FIXa in Xase complex with FVIIIa, PC/PS vesicles, Ca2+) was 25.6 nM.

For B14, the KM (FX activation by FIXa in Xase complex with FVIIIa, PC/PS vesicles, Ca2+) was 44.3 nM.

One may read the kcat/KM as the second-order rate constant that governs catalysis at low substrate concentration. For orientation: KM means the concentration of substrate that gives half-maximal velocity.
